Assay results taken from PMC3040262 (Biochemistry, 2011).

Molecular target: PP1α_(7-330), His6-tag removed by TEV protease (UniProt P62136 7-330)
Experiment: SEC

Sequence of PP1α_(7-330), His6-tag removed by TEV protease (P62136 7-330): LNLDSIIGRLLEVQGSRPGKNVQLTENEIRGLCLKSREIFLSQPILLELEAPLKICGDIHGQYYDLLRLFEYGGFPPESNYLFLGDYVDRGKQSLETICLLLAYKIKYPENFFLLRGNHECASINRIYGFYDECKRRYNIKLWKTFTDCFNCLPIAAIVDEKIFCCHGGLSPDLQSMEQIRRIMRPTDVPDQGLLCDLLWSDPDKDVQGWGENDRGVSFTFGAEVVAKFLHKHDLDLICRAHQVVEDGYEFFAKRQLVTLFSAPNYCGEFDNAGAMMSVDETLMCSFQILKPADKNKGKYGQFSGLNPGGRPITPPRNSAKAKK

B1: spinophilin_(417-583) (domain or fragment)
chain: not shown
- stoichiometry N: 1
